Residue numbers refer to the chain shown, from its start.
B1: chimeric 207F8G5 (antibody, human IgG1, kappa, V domains shown)
VH: QAYLQQSGAELVRSGASVKMSCKASGFTFTSYNIHWVKQTPGQGLEWIGYISPGNGGSNYNLKFKDKATLTSATSSSTAYMQISSLTSEDSAVYFCATGRGFAYWGQGTLVTVSA
VL: DIVMTQSPSSLTVTPGEKVTMSCKSSQSLFNSGNQKNYLIWYQQKPGQPPKLLIYRASTRDSGVPDRFTGSGSGTDFTLTISNVQAEDLAIYYCQNDYSYPLTFGAGTKLELKR
notes: chimeric, human IgG1/kappa constant regions; also called 207F8G5-Chimeric
B2: chimeric 237D2A4 (antibody, human IgG1, kappa, V domains shown)
VH: QVQLKESGPGLVAPSQSLSITCTVSGFSLTSYGVSWVRQPPGKGLEWLGVIWGDGSTNYHSTLISRLRISKDKSKSQVFLKLNSLQTDDTATYYCAKAGRGNALDYWGQGTSVTVSS
VL: B1 VL with P15A, F30L, I40T, R56W, D61E, N83S, I91V, Y100F
notes: chimeric, human IgG1/kappa constant regions; also called 237D2A4-Chimeric
B3: chimeric 232C5E3 (antibody, human IgG1, kappa, V domains shown)
VH: QAYLQQSGAELVRSGASVKMSCKASGYTFTSHNIHWIKQTPGKGLEWIGYIYPGNGGTNYNQKFKAKATLTADTSSSTAYMQISSLTSEDSAVYFCARDYYGNSFAYWGQGTLVTVSA
VL: DIMMTQSPSSLTETAGEKVSMSCKSSQSLLNSGNQKNYLTWYQQKPGQPPKLLIYWASTRESGVPDRFSGSGSGTDFTLTISSVQAEDLAVYYCQNGYRFPFTFGAGTKLELKR
notes: chimeric, human IgG1/kappa constant regions; also called 232C5E3-Chimeric
B4: chimeric 246B5F2 (antibody, human IgG1, kappa, V domains shown)
VH: EVMLVESGGGLMKPGGSLKLSCAASEFTFSNYAMSWVRQTPEKRLEWVATISSGRSSTYYPDSVKGRFTISRDNAKNTLYLQMSSLRSEDTAMYYCAGLGRGNAMEYWGQGTSVTVSS
VL: DIVMTQSPSSLTVTAGEKVTLSCKSSQSLLNSGNQKNYLTWYQQKPGQPPKLLIYWASTRESGVPDRFTGSGSGTDFILTINSVQAEDLAVYYCQNAYSYPFTFGSGTKLEIKR
notes: chimeric, human IgG1/kappa constant regions; also called 246B5F2-Chimeric
B5: chimeric 370E2B12C3 (antibody, human IgG1, kappa, V domains shown)
VH: QVQLKESGPGLVAPSQSLSITCTVSGFSLTTYGVHWVRQPPGKGLEWLGVIWAGGSTNYNSALMSRVSINKDNSKSQVFIKMNSLQADDTALYYCARAAYYGNGLDYWGQGTTLTVSS
VL: B4 VL with L21M, S28T, R60G, I78T, N82S, Y93F, S99F, S106G
notes: chimeric, human IgG1/kappa constant regions; also called 370E2B12C3-chimeric
B6: chimeric 429H6C5 (antibody, human IgG1, kappa, V domains shown)
VH: DVQLVESGGGLVQPGGSRKLSCAASGFTFSSFGMHWVRQAPEKELEWVAYISSGSSTIYYAHTVKGRFTISRDNPKNTLFLRMTSLGSEDTAMYYCVRFYYGNSFVNWGQGTLVTVSA
VL: B3 VL with M3V, E13A, S20T, L52M, S69A, G97A, R99I, F100Y, F102L, K109R
notes: chimeric, human IgG1/kappa constant regions
B7: chimeric 265E6G2 (antibody, human IgG1, kappa, V domains shown)
VH: B3 VH with H32Y, I34M, I37V, K43Q, A66G
VL: B1 VL with I2L, P15A, F30L, I40T, R56W, D61E, V84I, I91V, T103P, K113R
notes: as for B6
B8: chimeric 262C7C10 (antibody, human IgG1, kappa, V domains shown)
VH: B3 VH with S31N, H32Y, I37V, K43Q, T58N, N59Y, A66G, S77I
VL: B1 VL with P15A, S22N, F30L, I40T, R56W, D61E, N83S, S99Y
notes: as for B6
B9: chimeric 253E4F7 (antibody, human IgG1, kappa, V domains shown)
VH: EIQLQQSGPELMKPGASVKMSCKASGYSFTSYYIHWVKQSHGKSLEWIGYIDPFNGGTRYNQKFEGKATLTVDKSSTTAYMHLSSLTSEDSTVYYCASLRFLAYWGQGTLVTVSA
VL: B1 VL with P15A, S22T, F30L, I40T, L52V, Y55S, D61Q, N83S, I91V
notes: as for B6
B10: chimeric 185F2G12 (antibody, human IgG1, kappa, V domains shown)
VH: QAYLQQSGAELVRSGASVKMSCKASGYTFTSYNMHWVRQTPGQGLEWIGYIYPGNGGTNYSQKFKGKASLTADTSSTTAYMQISSLTSEDSAVYFCATGRGFAYWGQGTLVTVSA
VL: B1 VL with P15A, M21L, S32T, I40T, Y55F, D61E, S73F, N83S, I91V, Y98F
notes: as for B6
B11: chimeric 393C2C5 (antibody, human IgG1, kappa, V domains shown)
VH: B6 VH with E44G, T57P, H62D, R82Q, G87R, Y95F, V97A, R98T, V106A, N107Y
VL: B4 VL with L21M, S28T, P46S, I78T, N82S, F102V, L110V, I112L
notes: chimeric, human IgG1/kappa constant regions; also called 393C2C5A
B12: chimeric 418D2F9 (antibody, human IgG1, kappa, V domains shown)
VH: B6 VH with E44G, S52N, S53T, H62D, R82Q, G87R, V97A, F99I, N107Y
VL: B4 VL with L21M, I78T, N82S, A97D, F102L, S106A, I112L
notes: as for B6
B13: chimeric 250F4G4 (antibody, human IgG1, kappa, V domains shown)
VH: B3 VH with I34M, I37V, K43Q, G57R, A66G, A97T
VL: B3 VL with M3V, T14K, A15V, K18R, L30F, S69T, G97D, R99W, F100Y
notes: as for B6
B14: chimeric 252E7C9 (antibody, human IgG1, kappa, V domains shown)
VH: QTYLQQSGAELVRSGASVKMSCRTSGYSFTSHNMHWVKQTPGQGLEWIGYIYPGNGGSYYNQKFKGKAILTADTSSSTAYMQISSLTSEDSAVYFCTRDYYGNSFVYWGQGTLVTVSA
VL: DVVMTQSPSSLTEKTGEKVSMSCKSSQSLLNSGNQKNYLTWYQQKPGQPPKLLIYWASTRESGVPDRFTGSGSGTDFTLTISSLQTEDLAIYYCQNNFRYPFTFGAGTKLELKR
notes: as for B6
B15: chimeric 260G9E8 (antibody, human IgG1, kappa, V domains shown)
VH: B3 VH with Y3D, T30A, I34M, I37V, K43Q, N59K, K65T, A66G, S84T
VL: B3 VL with M3V, T14K, S22R, S69T, E87D, G97D, R99M
notes: as for B6
B16: chimeric 257B1G9 (antibody, human IgG1, kappa, V domains shown)
VH: B3 VH with I34M, I37V, K43Q, A66G, A97T
VL: B3 VL with M3V, T14R, K18R, L30F, S69T, G97D, F100Y
notes: as for B6
B17: chimeric 257G7B9 (antibody, human IgG1, kappa, V domains shown)
VH: B3 VH with I34L, I37V, K43Q, G57N, A66G, A97T
VL: B3 VL with M3V, T14K, K18R, L30F, S69T, G97N, R99W
notes: as for B6
B18: chimeric 273C10E5 (antibody, human IgG1, kappa, V domains shown)
VH: QVQLQQSGAELVKPGASVKLSCKASGYTFTSFGINWLRQRPEQGLEWIGWIFPGDGNSKYNENFKGKATLTTDKSSSTAYMQVTRLTSEDSAVYFCARFYYGNSFANWGQGTLVTVSA
VL: B3 VL with M3V, E13V, S20T, S58A, S69A, G97D, R99F, F100Y
notes: as for B6
B19: chimeric 418G6A5 (antibody, human IgG1, kappa, V domains shown)
VH: DVQLVESGGGLVQPGGSRKLSCVASGFTFSSFGMHWVRQAPEKGLEWVAYISSGSSPMYYADTVKGRFTISRDNPKNTLFLQMTSLRSEDTAMYFCARIYYGNSFAYWGQGTLVTVSA
VL: B4 VL with L21M, I78T, N82S, F102L, S106A, I112L
notes: as for B6
B20: chimeric 407D8G1 (antibody, human IgG1, kappa, V domains shown)
VH: DVQLVESGGGLVQPGGSRKLSCAASGFTFSGFGMHWIRQTPEKGLEWVAYISSGSRPIYYADTVQGRFTISRDNPKNTLFLQMTSLRSEDTAMYFCARFYYGNSFDHWGQGTLVTVSS
VL: B3 VL with M3V, S10F, E13V, S20T, S69T, V91L, G97A, R99S, F102L
notes: as for B6
B21: chimeric 417A6F11 (antibody, human IgG1, kappa, V domains shown)
VH: EVQLQQSGPELVKPGASMKISCKASGYSFTGYTMNWVKQSHGKNLEWIGLINPYNGGTSYNQKFKGKATLTVDKSSSTAYMELLSLTSEDSAVYYCARGDYWGQGTTLTVSS
VL: DIVMTQSPSSLTVTAGEKVTMSCKSSQSLLNSGNQKNYLTWYQQKPGQPPKLLIYWASTRESGVPDRFTGSGSGTDFTLTISSVQAEDLAVYYCQNDYSYPTFGAGTKLELKR
notes: as for B6

Molecular target: T1, human Claudin18.2 (human)
T1 construct: also called CLDN18.2
Assay: FACS, Claudin18.2-HEK293 cells
Protocol: (§1) The binding of chimeric antibodies to Claudin18.2 expressed on HEK293 cells was determine by FACS analysis. Briefly, HEK293 cells expressing human Claudin18.2 as prepared in the foregoing Example were harvested and incubated with anti-Claudin18.2 mAbs at 4° C. for 40 min, followed by fluorophore (iFluor 647)-labeled goat […] IgG (H+L) secondary antibodies at 4° C. for 0.5 hour. The samples were then analyzed by flow cytometry.
After initial screening of cell binding with transfected supernatants, the binding pattern of chimeric and up to 3 humanized antibodies on Claudin18.2 expressed on HEK293 cells were plotted with antibody in 3× serial dilutions, starting concentration of 45 μg/ml, following the protocol described in Example 3.

Row | EC50 [µg/mL] | Span | Binder
1 | 0.17 | 11800 | B1
2 | 0.0923 | 14800 | B2
3 | 0.317 | 69700 | B3
4 | 0.192 | 12400 | B4
5 | 0.772 | 4570 | B5

Molecular target: T1, human Claudin18.2
Assay: cell-based or functional assay

Row | ADCC % Relative activity [%] | ADCC EC50 [µg/mL] | Binder
6 | 144 | 0.0184 | B6
7 | 114 | 0.0214 | B1
8 | 77.8 | 0.0321 | B7
9 | 105 | 0.0237 | B8
10 | 138 | 0.0225 | B9
11 | 399 | 0.00886 | B10
12 | 169 | 0.0214 | B2
13 | 318 | 0.0111 | B11
14 | 25.7 | 0.103 | B12
15 | 109 | 0.0281 | B13
16 | 98.7 | 0.0311 | B14
17 | 452 | 0.00782 | B3
18 | 104 | 0.024 | B15
19 | 68.2 | 0.0454 | B16
20 | 55.8 | 0.0556 | B17
21 | 157 | 0.023 | B4
22 | 75.7 | 0.0335 | B5
23 | 92.1 | 0.0275 | B18

Molecular target: T1, human Claudin18.2
Assay: FACS, Claudin18.2-HEK293 cells
Remark: another data set of the same source
Protocol: as §1

Row | EC50 [nM] | Binder
24 | 0.908 | B6
25 | 0.595 | B19
26 | 0.533 | B20
27 | 0.687 | B11
28 | 0.65 | B12
29 | 2.48 | B21

Molecular target: T1, human Claudin18.2
Assay: cell-based or functional assay
Remark: another data set of the same source

Row | CDC % Relative activity [%] | CDC EC50 [µg/mL] | Binder
30 | 2430 | 0.0874 | B6
31 | 1300 | 0.207 | B1
32 | 487 | 0.472 | B7
33 | 666 | 0.345 | B8
34 | 1320 | 0.205 | B9
35 | 2100 | 0.101 | B10
36 | 1170 | 0.231 | B2
37 | 2030 | 0.105 | B11
38 | 3.04 | 69.9 | B12
39 | 875 | 0.309 | B13
40 | 991 | 0.272 | B14
41 | 2130 | 0.0994 | B3
42 | 684 | 0.336 | B15
43 | 642 | 0.358 | B16
44 | 760 | 0.302 | B17
45 | 985 | 0.274 | B4
46 | 1200 | 0.192 | B5
47 | 854 | 0.269 | B18

Molecular target: T1, human Claudin18.2
Assay: FACS, Claudin18.2-HEK293 cells
Remark: another data set of the same source
Protocol: as §1

Row | EC50 [nM] | Binder
48 | 0.554 | B1
49 | 1.05 | B7
50 | 1.17 | B8
51 | 0.561 | B9
52 | 0.634 | B10
53 | 0.596 | B2
54 | 1.02 | B13
55 | 0.331 | B14
56 | 1.05 | B3
57 | 1.05 | B15
58 | 1.17 | B16
59 | 0.742 | B17
60 | 1.24 | B4
61 | 0.792 | B5
62 | 1.01 | B18

From patent publication US20220073643A1 (NANJING GENSCRIPT BIOTECH, published 2022)
